Experimental data as given in patent publication US20050260697.

Key:
[1] = target: human cardiac Troponin-T2, P45379
[2] = target: human cardiac Troponin-I3, P19429
[3] = target: human muscle Troponin-T3, P45378
[4] = target: human muscle Troponin-T1, P13805
human muscle Troponin-T1, P13805, sequence (P13805 whole entry): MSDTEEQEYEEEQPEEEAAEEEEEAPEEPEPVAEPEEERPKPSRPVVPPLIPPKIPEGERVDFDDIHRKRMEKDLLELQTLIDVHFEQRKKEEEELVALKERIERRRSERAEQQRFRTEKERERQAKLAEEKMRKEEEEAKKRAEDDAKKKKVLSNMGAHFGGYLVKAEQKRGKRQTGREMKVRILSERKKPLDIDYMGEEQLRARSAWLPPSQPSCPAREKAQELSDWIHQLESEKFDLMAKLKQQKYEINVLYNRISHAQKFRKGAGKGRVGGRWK

human muscle Troponin-T3, P45378, sequence (P45378 2-269): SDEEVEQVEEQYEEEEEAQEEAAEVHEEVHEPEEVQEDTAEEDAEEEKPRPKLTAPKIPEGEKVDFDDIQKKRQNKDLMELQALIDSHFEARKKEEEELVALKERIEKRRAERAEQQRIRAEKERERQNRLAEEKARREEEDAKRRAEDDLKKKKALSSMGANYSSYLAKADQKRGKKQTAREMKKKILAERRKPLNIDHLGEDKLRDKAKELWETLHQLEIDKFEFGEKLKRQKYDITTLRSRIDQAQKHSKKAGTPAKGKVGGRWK
human cardiac Troponin-I3, P19429, sequence (P19429 whole entry, looked up): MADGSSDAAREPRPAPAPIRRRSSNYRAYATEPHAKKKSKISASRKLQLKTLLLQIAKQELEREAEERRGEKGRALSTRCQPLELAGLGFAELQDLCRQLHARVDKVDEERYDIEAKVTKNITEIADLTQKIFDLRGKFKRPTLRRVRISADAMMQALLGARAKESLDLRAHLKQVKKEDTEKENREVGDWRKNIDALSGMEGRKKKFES

B1: caspase-3 (protein)
chain: SGISLDNSYKMDYPEMGLCIIINNKNFHKSTGMTSRSGTDVDAANLRETFRNLKYEVRNKNDLTREEIVELMRDVSKEDHSKRSSFVCVLLSHGEEGIIFGTNGPVDLKKITNFFRGDRCRSLTGKPKLFIIQACRGTELDCGIETDSGVDDDMACHKIPVEADFLYAYSTAPGYYSWRNSKDGSWFIQSLCAMLKQYADKLEFMHILTRVNRKVATEFESFSFDATFHAKKQIPCIVSMLTKELYFYH
in vitro protease digestion, breakdown products on gels [1]: human cardiac Troponin-T2 and Troponin-13 were cleaved by calpain-2 and caspase-3 proteases, producing unique breakdown products
stated: cleaves (breakdown bands on a gel) [1]: the Caspase-3 lane shows a band d at the 25 kDa mark that is absent from the untreated lane and the Calpain-2 lanes; the Troponin-T2 band at 30 kDa is largely kept; no bands a, b, c
in vitro protease digestion, breakdown products on gels [2]: human cardiac Troponin-T2 and Troponin-13 were cleaved by calpain-2 and caspase-3 proteases, producing unique breakdown products

B2: calpain-1 (protein)
chain: SEEIITPVYCTGVSAQVQKQRARELGLGRHENAIKYLGQDYEQLRVRCLQSGTLFRDEAFPPVPQSLGYKDLGPNSSKTYGIKWKRPTELLSNPQFIVDGATRTDICQGALGDCWLLAAIASLTLNDTLLHRVVPHGQSFQNGYAGIFHFQLWQFGEWVDVVVDDLLPIKDGKLVFVHSAEGNEFWSALLEKAYAKVNGSYEALSGGSTSEGFEDFTGGVTEWYELRKAPSDLYQIILKALERGSLLGCSIDISSVLDMEAITFKKLVKGHAYSVTGAKQVNYRGQVVSLIRMRNPWGEVEWTGAWSDSSSEWNNVDPYERDQLRVKMEDGEFWMSFRDFMREFTRLEICNLTPDALKSRTIRKWNTTLYEGTWRRGSTAGGCRNYPATFWVNPQFKIRLDETDDPDDYGDRESGCSFVLALMQKHRRRERRFGRDMETIGFAVYEVPPELVGQPAVHLKRDFFLANASRARSEQFINLREVSTRFRLPPGEYVVVPSTFEPNKEGDFVLRFFSEKSAGTVELDDQIQANLPDEQVLSEEEIDENFKALFRQLAGEDMEISVKELRTILNRIISKHKDLRTKGFSLESCRSMVNLMDRDGNGKLGLVEFNILWNRIRNYLSIFRKFDLDKSGSMSAYEMRMAIESAGFKLNKKLYELIITRYSEPDLAVDFDNFVCCLVRLETMFRFFKTLDTDLDGVVTFDLFKWLQLTMFA
in vitro protease digestion, breakdown products on Coomassie stained membrane and Western blot [3]: human muscle Troponin-T1/3 was digested by calpain-1 protease, producing unique breakdown products
stated: cleaves (breakdown bands on a stained membrane and a blot) [3]: Coomassie panel: the band at 35 kDa in the TnT lane weakens in the +Calpain-I lanes with time; band A of the blot, just below the intact band, is mapped to TnT3 (new N-terminus APKIPEGEK)
in vitro protease digestion, breakdown products on Coomassie stained membrane and Western blot [4]: human muscle Troponin-T1/3 was digested by calpain-1 protease, producing unique breakdown products
stated: cleaves (breakdown bands on a stained membrane and a blot) [4]: Coomassie panel: the band at 35 kDa in the TnT lane weakens in the +Calpain-I lanes with time and a band near the 15 kDa mark appears; band B of the blot is mapped to TnT1 (new N-terminus AEQKRGKRQTGR)
